Columns and labels:
[1] = molecular target: T1, Ac-PLG˜LRL-Ahxh-Hynic (not fully specified)
T1 chain: PLGLRL

[2] = molecular target: T2, Ac-DAla-PRG˜Ile-LA-Ahxh-Hynic (not fully specified)
T2 chain: APRGILA

[3] = molecular target: T3, Ac-P-Cit-Aib˜Hphe-LA-Ahxh-Hynic (not fully specified)
T3 chain: PXXXLA

[4] = molecular target: T4, Ac-Hpro-Cit-G˜Hphe-TA-Ahxh-Hynic (not fully specified)
T4 chain: XXGXTA

[5] = molecular target: T5, Ac-PL-NLys-LL-NHNH-Ac[C14]
T5 chain: PLXLL

[6] = molecular target: T6, Ac-P-Cit-G˜Igl-LA-Ahxh-Hynic (not fully specified)
T6 chain: PXGXLA

[7] = molecular target: T7, Ac-PLG˜Hphe-RLT-Ahxh-Hynic
T7 chain: PLGXRLT

[8] = molecular target: T8, Ac-PLG˜LL-Ahxh-Hynic
T8 chain: PLGLL

[9] = molecular target: T9, Ac-Inp-Cit-G˜Hphe-LA-Ahxh-Hynic (not fully specified)
T9 chain: XXGXLA

[10] = molecular target: T10, Ac-P-Cit-G˜Hphe-Cit-L-Ahxh-Hynic (not fully specified)
T10 chain: PXGXXL

[11] = molecular target: T11, Ac-PRQ˜IT-Ahxh-Hynic
T11 chain: PRQIT

[12] = molecular target: T12, Ac-PLG˜Hphe-Cit-L-Ahxh-Hynic (not fully specified)
T12 chain: PLGXXL

[13] = molecular target: T13, Ac-P-Cit-G˜Hphe-LQ-Hynic (not fully specified)
T13 chain: PXGXLQ

[14] = molecular target: T14, Ac-PL-NLys˜Hphe-RL-Ahxh-Ac[C14] (not fully specified)
T14 chain: PLXXRL

[15] = molecular target: T15, Ac-P-Hcit-G˜Hphe-SA-Ahxh-Hynic (not fully specified)
T15 chain: PXGXSA

[16] = molecular target: T16, Ac-PR-Cit˜LSA-Ahxh-Hynic
T16 chain: PRXLSA

[17] = molecular target: T17, Ac-PRG˜Hphe-LA-Ahxh-Hynic
T17 chain: PRGXLA

[18] = molecular target: T18, Ac-PLG˜LWA-Ahxh-Ac[C14] (not fully specified)
T18 chain: PLGLWA

[19] = molecular target: T19, Ac-PLG˜LL-Ambh-Hynic
T19 chain: PLGLL

[20] = molecular target: T20, Ac-P-Cit-G-Hphe-LA-Hynic
T20 chain: PXGXLA

[21] = molecular target: T21, Ac-PL-Sar˜LL-Ahxh-Ac[C14] (not fully specified)
T21 chain: PLXLL

[22] = molecular target: T22, Ac-DArg-P-Aib-G˜Hphe-LA-Ahxh-Hynic (not fully specified)
T22 chain: RPXGXLA

[23] = molecular target: T23, Ac-PL-NLys˜LL-Ahxh-Ac[C14] (not fully specified)
T23 chain: PLXLL

[24] = molecular target: T24, Ac-VRW˜LTA-Ahxh-Hynic (not fully specified)
T24 chain: VRWLTA

[25] = molecular target: T25, Ac-POG˜Hphe-L-Nle-Ahxh-Hynic
T25 chain: PXGXLX

[26] = molecular target: T26, Ac-PL-NLys-LL-dLeu-Ahxh-Ac[C14]
T26 chain: PLXLLL

[27] = molecular target: T27, Ac-PLG-Hphe-OL-Ahxh-Ac[C14]
T27 chain: PLGXXL

[28] = molecular target: T28, Ac-PLG-LYV-Ahxh-Ac[C14]
T28 chain: PLGLYV

[29] = molecular target: T29, Ac-PLG˜Pabu-Cit-L-Ahxh-Ac[C14] (not fully specified)
T29 chain: PLGXXL

[30] = molecular target: T30, Ac-PLG˜Hphe-YL-Ahxh-Hynic (not fully specified)
T30 chain: PLGXYL

[31] = molecular target: T31, Ac-PLG˜LYL-Ahxh-Hynic (not fully specified)
T31 chain: PLGLYL

[32] = molecular target: T32, Ac-P-DLeu-G˜LL-Ahxh-Hynic (not fully specified)
T32 chain: PLGLL

[33] = molecular target: T33, Ac-PLG˜Hphe-KL-Ahxh-Hynic
T33 chain: PLGXKL

[34] = molecular target: T34, Ac-PLG˜S(OBn)-LL-Ahxh-Ac[C14] (not fully specified)
T34 chain: PLGSLL

[35] = molecular target: T35, Ac-PRR˜LTA-Ahxh-Hynic
T35 chain: PRRLTA

[36] = molecular target: T36, Ac-PRR˜Cha-TA-Ambh-Hynic
T36 chain: PRRXTA

[37] = molecular target: T37, Ac-P-Cit-G˜Hphe-LA-Ahxh-Hynic (not fully specified)
T37 chain: PXGXLA

[38] = molecular target: T38, Hynic-fff-Ahx-PLG˜Hphe-OLEE-OH
T38 chain: FFFXPLGXXLEE

[39] = molecular target: T39, Ac-P-Cit-G˜Hphe-Cha-A-Ahxh-Ac[C14] (not fully specified)
T39 chain: PXGXXA

[40] = molecular target: T40, Ac-P-Cit-Abu˜LTA-Ahxh-Hynic (not fully specified)
T40 chain: PXXLTA

[41] = molecular target: T41, Ac-PL-NLys˜S(OBn)-LL-Ahxh-Ac[C14] (not fully specified)
T41 chain: PLXSLL

[42] = molecular target: T42, Ac-PLG˜LAL-Ahxh-Hynic
T42 chain: PLGLAL

[43] = molecular target: T43, H-γ-DGlu-PLG-LYT-Ahxh-Hynic (not fully specified)
T43 chain: EPLGLYT

[44] = molecular target: T44, Ac-P-NLeu-G˜LL-Ahxh-Ac[C14] (not fully specified)
T44 chain: PXGLL

[45] = molecular target: T45, Ac-PL-DAla˜LL-Ahxh-Hynic (not fully specified)
T45 chain: PLALL

[46] = molecular target: T46, Ac-P-Cit-G˜Aib-LA-Ahxh-Hynic (not fully specified)
T46 chain: PXGXLA

[47] = molecular target: T47, Ac-PLG˜LLA-Ahxh-Hynic (not fully specified)
T47 chain: PLGLLA

[48] = molecular target: T48, Ac-PLG˜Hphe-YL-Hynic
T48 chain: PLGXYL

[49] = molecular target: T49, Ac-PLG˜Hphe-OL-Ambh-Hynic
T49 chain: PLGXXL

[50] = molecular target: T50, Ac-P-Cit-G˜S(OBn)-LA-Ahxh-Ac[C14] (not fully specified)
T50 chain: PXGSLA

[51] = molecular target: T51, Ac-P-O(Me)2-G˜Hphe-L-Nle-Ahxh-Hynic (not fully specified)
T51 chain: PXGXLX

B1: MMP-2 (protein)
chain: APSPIIKFPGDVAPKTDKELAVQYLNTFYGCPKESCNLFVLKDTLKKMQKFFGLPQTGDLDQNTIETMRKPRCGNPDVANYNFFPRKPKWDKNQITYRIIGYTPDLDPETVDDAFARAFQVWSDVTPLRFSRIHDGEADIMINFGRWEHGDGYPFDGKDGLLAHAFAPGTGVGGDSHFDDDELWTLGEGQVVRVKYGNADGEYCKFPFLFNGKEYNSCTDTGRSDGFLWCSTTYNFEKDGKYGFCPHEALFTMGGNAEGQPCKFPFRFQGTSYDSCTTEGRTDGYRWCGTTEDYDRDKKYGFCPETAMSTVGGNSEGAPCVFPFTFLGNKYESCTSAGRSDGKMWCATTANYDDDRKWGFCPDQGYSLFLVAAHEFGHAMGLEHSQDPGALMAPIYTYTKNFRLSQDDIKGIQELYGASPDIDLGTGPTPTLGPVTPEICKQDIVFDGIAQIRGEIFFFKDRFIWRTVTPRDKPMGPLLVATFWPELPEKIDAVYEAPQEEKAVFFAGNEYWIYSASTLERGYPKPLTSLGLPPDVQRVDAAFNWSKNKKTYIFAGDKFWRYNEVKKKMDPGFPKLIADAWNAIPDNLDAVVDLQGGGHSYFFKGAYYLKLENQSLKSVKFGSIKSDWLGC
Kcat/Km [1]: 182000 M⁻¹ s⁻¹ | Kcat/Km [2]: 130000 M⁻¹ s⁻¹ | Kcat/Km [3]: 275 M⁻¹ s⁻¹ | Kcat/Km [4]: 99600 M⁻¹ s⁻¹ | Kcat/Km [5]: 134000 M⁻¹ s⁻¹ | Kcat/Km [6]: 189 M⁻¹ s⁻¹ | Kcat/Km [7]: 119000 M⁻¹ s⁻¹ | Kcat/Km [8]: > 250000 M⁻¹ s⁻¹ | Kcat/Km [9]: 4580 M⁻¹ s⁻¹ | Kcat/Km [10]: 42600 M⁻¹ s⁻¹ | Kcat/Km [11]: 898 M⁻¹ s⁻¹ | Kcat/Km [12]: 157000 M⁻¹ s⁻¹ | Kcat/Km [13]: 171000 M⁻¹ s⁻¹ | Kcat/Km [14]: 102000 M⁻¹ s⁻¹ | Kcat/Km [15]: 293000 M⁻¹ s⁻¹ | Kcat/Km [16]: 14700 M⁻¹ s⁻¹ | Kcat/Km [17]: > 500000 M⁻¹ s⁻¹ | Kcat/Km [18]: 712000 M⁻¹ s⁻¹ | Kcat/Km [19]: 33600 M⁻¹ s⁻¹ | Kcat/Km [20]: > 250000 M⁻¹ s⁻¹ | Kcat/Km [21]: 111000 M⁻¹ s⁻¹ | Kcat/Km [22]: 18600 M⁻¹ s⁻¹ | Kcat/Km [23]: 180000 M⁻¹ s⁻¹ | Kcat/Km [24]: 14400 M⁻¹ s⁻¹ | Kcat/Km [25]: 401000 M⁻¹ s⁻¹ | Kcat/Km [26]: 0 M⁻¹ s⁻¹ | Kcat/Km [27]: 53800 M⁻¹ s⁻¹ | Kcat/Km [28]: 396000 M⁻¹ s⁻¹ | Kcat/Km [29]: 0 M⁻¹ s⁻¹ | Kcat/Km [30]: > 100000 M⁻¹ s⁻¹ | Kcat/Km [31]: 65300 M⁻¹ s⁻¹ | Kcat/Km [32]: 5010 M⁻¹ s⁻¹ | Kcat/Km [33]: 78900 M⁻¹ s⁻¹ | Kcat/Km [34]: 473000 M⁻¹ s⁻¹ | Kcat/Km [35]: 10100 M⁻¹ s⁻¹ | Kcat/Km [36]: 0 M⁻¹ s⁻¹ | Kcat/Km [37]: 827000 M⁻¹ s⁻¹ | Kcat/Km [38]: 11600 M⁻¹ s⁻¹ | Kcat/Km [39]: > 500000 M⁻¹ s⁻¹ | Kcat/Km [40]: 55400 M⁻¹ s⁻¹ | Kcat/Km [41]: 165000 M⁻¹ s⁻¹ | Kcat/Km [42]: 4380 M⁻¹ s⁻¹ | Kcat/Km [43]: 153000 M⁻¹ s⁻¹ | Kcat/Km [44]: 0 M⁻¹ s⁻¹ | Kcat/Km [45]: 0 M⁻¹ s⁻¹ | Kcat/Km [46]: 0 M⁻¹ s⁻¹ | Kcat/Km [47]: 387000 M⁻¹ s⁻¹ | Kcat/Km [48]: 63200 M⁻¹ s⁻¹ | Kcat/Km [49]: 42700 M⁻¹ s⁻¹ | Kcat/Km [50]: > 500000 M⁻¹ s⁻¹ | Kcat/Km [51]: 567000 M⁻¹ s⁻¹

B2: human MMP-9 (protein)
chain: MRTPRCGVPDLGRFQTFEGDLKWHHHNITYWIQNYSEDLPRAVIDDAFARAFALWSAVTPLTFTRVYSRDADIVIQFGVAEHGDGYPFDGKDGLLAHAFPPGPGIQGDAHFDDDELWSLGKGVVVPTRFGNADGAACHFPFIFEGRSYSACTTDGRSDGLPWCSTTANYDTDDRFGFCPSERLYTQDGNADGKPCQFPFIFQGQSYSACTTDGRSDGYRWCATTANYDRDKLFGFCPTRADSTVMGGNSAGELCVFPFTFLGKEYSTCTSEGRGDGRLWCATTSNFDSDKKWGFCPDQGYSLFLVAAHEFGHALGLDHSSVPEALMYPMYRFTEGPPLHKDDVNGIRHLYGPRPEPEPRPPTTTTPQPTAPPTVCPTGPPTVHPSERPTAGPTGPPSAGPTGPPTAGPSTATTVPLSPVDDACNVNIFDAIAEIGNQLYLFKDGKYWRFSEGRGSRPQGPFLIADKWPALPRKLDSVFEERLSKKLFFFSGRQVWVYTGASVLGPRRLDKLGLGADVAQVTGALRSGRGKMLLFSGRRLWRFDVKAQMVDPRSASEVDRMFPGVPLDTHDVFQYREKAYFCQDRFYWRVSSRSELNQVDQVGYVTYDILQCPED
Kcat/Km [1]: 167000 M⁻¹ s⁻¹ | Kcat/Km [2]: 61700 M⁻¹ s⁻¹ | Kcat/Km [3]: 0 M⁻¹ s⁻¹ | Kcat/Km [4]: 160000 M⁻¹ s⁻¹ | Kcat/Km [5]: 138000 M⁻¹ s⁻¹ | Kcat/Km [6]: 0 M⁻¹ s⁻¹ | Kcat/Km [7]: 103000 M⁻¹ s⁻¹ | Kcat/Km [8]: 218000 M⁻¹ s⁻¹ | Kcat/Km [9]: 1650 M⁻¹ s⁻¹ | Kcat/Km [10]: 11400 M⁻¹ s⁻¹ | Kcat/Km [11]: 1700 M⁻¹ s⁻¹ | Kcat/Km [12]: 171000 M⁻¹ s⁻¹ | Kcat/Km [13]: 79600 M⁻¹ s⁻¹ | Kcat/Km [14]: 114000 M⁻¹ s⁻¹ | Kcat/Km [15]: 396000 M⁻¹ s⁻¹ | Kcat/Km [16]: 40100 M⁻¹ s⁻¹ | Kcat/Km [17]: > 500000 M⁻¹ s⁻¹ | Kcat/Km [18]: > 750000 M⁻¹ s⁻¹ | Kcat/Km [19]: 36300 M⁻¹ s⁻¹ | Kcat/Km [20]: > 250000 M⁻¹ s⁻¹ | Kcat/Km [21]: 143000 M⁻¹ s⁻¹ | Kcat/Km [22]: 0 M⁻¹ s⁻¹ | Kcat/Km [23]: 195000 M⁻¹ s⁻¹ | Kcat/Km [24]: 29900 M⁻¹ s⁻¹ | Kcat/Km [25]: 52000 M⁻¹ s⁻¹ | Kcat/Km [26]: 0 M⁻¹ s⁻¹ | Kcat/Km [27]: 77500 M⁻¹ s⁻¹ | Kcat/Km [28]: > 500000 M⁻¹ s⁻¹ | Kcat/Km [29]: 0 M⁻¹ s⁻¹ | Kcat/Km [30]: > 100000 M⁻¹ s⁻¹ | Kcat/Km [31]: 95000 M⁻¹ s⁻¹ | Kcat/Km [32]: 438 M⁻¹ s⁻¹ | Kcat/Km [33]: 93400 M⁻¹ s⁻¹ | Kcat/Km [34]: > 500000 M⁻¹ s⁻¹ | Kcat/Km [35]: 33500 M⁻¹ s⁻¹ | Kcat/Km [36]: 1580 M⁻¹ s⁻¹ | Kcat/Km [37]: 584000 M⁻¹ s⁻¹ | Kcat/Km [38]: 1740 M⁻¹ s⁻¹ | Kcat/Km [39]: > 500000 M⁻¹ s⁻¹ | Kcat/Km [40]: 77800 M⁻¹ s⁻¹ | Kcat/Km [41]: 271000 M⁻¹ s⁻¹ | Kcat/Km [42]: 7140 M⁻¹ s⁻¹ | Kcat/Km [43]: 59400 M⁻¹ s⁻¹ | Kcat/Km [44]: 0 M⁻¹ s⁻¹ | Kcat/Km [45]: 0 M⁻¹ s⁻¹ | Kcat/Km [46]: 772 M⁻¹ s⁻¹ | Kcat/Km [47]: 226000 M⁻¹ s⁻¹ | Kcat/Km [48]: > 100000 M⁻¹ s⁻¹ | Kcat/Km [49]: 57700 M⁻¹ s⁻¹ | Kcat/Km [50]: > 500000 M⁻¹ s⁻¹ | Kcat/Km [51]: 27000 M⁻¹ s⁻¹
